Results as given in the supplement of paper PMC12458215.
± gives the uncertainty stated by the source.

Tested on: HEK293T
Assay: plasma membrane surface immunostaining intensity (anti-HA, deep receptor scanning) (arbitrary fluorescence units); higher = higher plasma membrane expression
Conditions: GPCR class: A

| Sequence | plasma membrane surface immunostaining intensity |
| --- | --- |
| MDLGKPMKSVLVVALLVIFQVCLCQDEVTDDYIGDNTTVDYTLFESLCSKKDVRNFKAWFLPIMYSIICFVGLLGNGLVVLTYIYFKRLKTMTDTYLLNLAVADILFLLTLPFWAYSAAKSWVFGVHFCKLIFAIYKMSFFSGMLLLLCISIDRYVAIVQAVSAHRHRARVLLISKLSCVGIWILATVLSIPELLYSDLQRSSSEQAMRCSLITEHVEAFITIQVAQMVIGFLVPLLAMSFCYLVIIRTLLQARNFERNKAIKVIIAVVVVFIVFQLPYNGVVLAQTVANFNITSSTCELSKQLNIAYDVTYSLACVRCCVNPFLYAFIGVKFRNDLFKLFKDLGCLSQEQLRQWSSCRHIRRSSMSVEAETTTTFSP [CCR7] | 2440 ± 380 |
| MDLPPQLSFGLYVAAFALGFPLNVLAIRGATAHARLRLTPSLVYALNLGCSDLLLTVSLPLKAVEALASGAWPLPASLCPVFAVAHFFPLYAGGGFLAALSAGRYLGAAFPLGYQAFRRPCYSWGVCAAIWALVLCHLGLVFGLEAPGGWLDHSNTSLGINTPVNGSPVCLEAWDPASAGPARFSLSLLLFFLPLAITAFCYVGCLRALARSGLTHRRKLRAAWVAGGALLTLLLCVGPYNASNVASFLYPNLGGSWRKLGLITGAWSVVLNPLVTGYLGRGPGLKTVCAARTQGGKSQK [FFAR1] | 265 ± 37 |
| MDNASFSEPWPANASGPDPALSCSNASTLAPLPAPLAVAVPVVYAVICAVGLAGNSAVLYVLLRAPRMKTVTNLFILNLAIADELFTLVLPINIADFLLRQWPFGELMCKLIVAIDQYNTFSSLYFLTVMSADRYLVVLATAESRRVAGRTYSAARAVSLAVWGIVTLVVLPFAVFARLDDEQGRRQCVLVFPQPEAFWWRASRLYTLVLGFAIPVSTICVLYTTLLCRLHAMRLDSHAKALERAKKRVTFLVVAILAVCLLCWTPYHLSTVVALTTDLPQTPLVIAISYFITSLSYANSCLNPFLYAFLDASFRRNLRQLITCRAAA [NPBWR1] | 3950 ± 330 |
| MDNVLPVDSDLSPNISTNTSEPNQFVQPAWQIVLWAAAYTVIVVTSVVGNVVVMWIILAHKRMRTVTNYFLVNLAFAEASMAAFNTVVNFTYAVHNEWYYGLFYCKFHNFFPIAAVFASIYSMTAVAFDRYMAIIHPLQPRLSATATKVVICVIWVLALLLAFPQGYYSTTETMPSRVVCMIEWPEHPNKIYEKVYHICVTVLIYFLPLLVIGYAYTVVGITLWASEIPGDSSDRYHEQVSAKRKVVKMMIVVVCTFAICWLPFHIFFLLPYINPDLYLKKFIQQVYLAIMWLAMSSTMYNPIIYCCLNDRFRLGFKHAFRCCPFISAGDYEGLEMKSTRYLQTQGSVYKVSRLETTISTVVGAHEEEPEDGPKATPSSLDLTSNCSSRSDSKTMTESFSFSSNVLS [TACR1] | 6280 ± 110 |
| MDPEETSVYLDYYYATSPNSDIRETHSHVPYTSVFLPVFYTAVFLTGVLGNLVLMGALHFKPGSRRLIDIFIINLAASDFIFLVTLPLWVDKEASLGLWRTGSFLCKGSSYMISVNMHCSVLLLTCMSVDRYLAIVWPVVSRKFRRTDCAYVVCASIWFISCLLGLPTLLSRELTLIDDKPYCAEKKATPIKLIWSLVALIFTFFVPLLSIVTCYCCIARKLCAHYQQSGKHNKKLKKSIKIIFIVVAAFLVSWLPFNTFKFLAIVSGLRQEHYLPSAILQLGMEVSGPLAFANSCVNPFIYYIFDSYIRRAIVHCLCPCLKNYDFGSSTETSDSHLTKALSTFIHAEDFARRRKRSVSL [GPR15] | 342 ± 19 |
| MDPLNLSWYDDDLERQNWSRPFNGSDGKADRPHYNYYATLLTLLIAVIVFGNVLVCMAVSREKALQTTTNYLIVSLAVADLLVATLVMPWVVYLEVVGEWKFSRIHCDIFVTLDVMMCTASILNLCAISIDRYTAVAMPMLYNTRYSSKRRVTVMISIVWVLSFTISCPLLFGLNNADQNECIIANPAFVVYSSIVSFYVPFIVTLLVYIKIYIVLRRRRKRVNTKRSSRAFRAHLRAPLKGNCTHPEDMKLCTVIMKSNGSFPVNRRRVEAARRAQELEMEMLSSTSPPERTRYSPIPPSHHQLTLPDPSHHGLHSTPDSPAKPEKNGHAKDHPKIAKIFEIQTMPNGKTRTSLKTMSRRKLSQQKEKKATQMLAIVLGVFIICWLPFFITHILNIHCDCNIPPVLYSAFTWLGYVNSAVNPIIYTTFNIEFRKAFLKILHC [DRD2] | 1950 ± 620 |
| MDPTISTLDTELTPINGTEETLCYKQTLSLTVLTCIVSLVGLTGNAVVLWLLGCRMRRNAFSIYILNLAAADFLFLSGRLIYSLLSFISIPHTISKILYPVMMFSYFAGLSFLSAVSTERCLSVLWPIWYRCHRPTHLSAVVCVLLWALSLLRSILEWMLCGFLFSGADSAWCQTSDFITVAWLIFLCVVLCGSSLVLLIRILCGSRKIPLTRLYVTILLTVLVFLLCGLPFGIQFFLFLWIHVDREVLFCHVHLVSIFLSALNSSANPIIYFFVGSFRQRQNRQNLKLVLQRALQDASEVDEGGGQLPEEILELSGSRLEQ [MRGPRX1] | 6278 ± 45 |
| MDPTTPAWGTESTTVNGNDQALLLLCGKETLIPVFLILFIALVGLVGNGFVLWLLGFRMRRNAFSVYVLSLAGADFLFLCFQIINCLVYLSNFFCSISINFPSFFTTVMTCAYLAGLSMLSTVSTERCLSVLWPIWYRCRRPRHLSAVVCVLLWALSLLLSILEGKFCGFLFSDGDSGWCQTFDFITAAWLIFLFMVLCGSSLALLVRILCGSRGLPLTRLYLTILLTVLVFLLCGLPFGIQWFLILWIWKDSDVLFCHIHPVSVVLSSLNSSANPIIYFFVGSFRKQWRLQQPILKLALQRALQDIAEVDHSEGCFRQGTPEMSRSSLV [MRGPRX2] | 359 ± 8.2 |
| MDQFPESVTENFEYDDLAEACYIGDIVVFGTVFLSIFYSVIFAIGLVGNLLVVFALTNSKKPKSVTDIYLLNLALSDLLFVATLPFWTHYLINEKGLHNAMCKFTTAFFFIGFFGSIFFITVISIDRYLAIVLAANSMNNRTVQHGVTISLGVWAAAILVAAPQFMFTKQKENECLGDYPEVLQEIWPVLRNVETNFLGFLLPLLIMSYCYFRIIQTLFSCKNHKKAKAIKLILLVVIVFFLFWTPYNVMIFLETLKLYDFFPSCDMRKDLRLALSVTETVAFSHCCLNPLIYAFAGEKFRRYLYHLYGKCLAVLCGRSVHVDFSSSESQRSRHGSVLSSNFTYHTSDGDALLLL [CX3CR1] | 196 ± 34 |
| MDSFNYTTPDYGHYDDKDTLDLNTPVDKTSNTLRVPDILALVIFAVVFLVGVLGNALVVWVTAFEAKRTINAIWFLNLAVADFLSCLALPILFTSIVQHHHWPFGGAACSILPSLILLNMYASILLLATISADRFLLVFKPIWCQNFRGAGLAWIACAVAWGLALLLTIPSFLYRVVREEYFPPKVLCGVDYSHDKRRERAVAIVRLVLGFLWPLLTLTICYTFILLRTWSRRATRSTKTLKVVVAVVASFFIFWLPYQVTGIMMSFLEPSSPTFLLLKKLDSLCVSFAYINCCINPIIYVVAGQGFQGRLRKSLPSLLRNVLTEESVVRESKSFTRSTVDTMAQKTQAV [C5AR1] | 6196 ± 24 |
| MDSGPLWDANPTPRGTLSAPNATTPWLGRDEELAKVEIGVLATVLVLATGGNLAVLLTLGQLGRKRSRMHLFVLHLALTDLAVALFQVLPQLLWDITYRFQGPDLLCRAVKYLQVLSMFASTYMLLAMTLDRYLAVCHPLRSLQQPGQSTYLLIAAPWLLAAIFSLPQVFIFSLREVIQGSGVLDCWADFGFPWGPRAYLTWTTLAIFVLPVTMLTACYSLICHEICKNLKVKTQAWRVGGGGWRTWDRPSPSTLAATTRGLPSRVSSINTISRAKIRTVKMTFVIVLAYIACWAPFFSVQMWSVWDKNAPDEDSTNVAFTISMLLGNLNSCCNPWIYMGFNSHLLPRPLRHLACCGGPQPRMRRRLSDGSLSSRHTTLLTRSSCPATLSLSLSLTLSGRPRPEESPRDLELADGEGTAETIIF [AVPR1B] | 665 ± 110 |

Same assay, conditions: GPCR class: A (Olfactory)

| Sequence | plasma membrane surface immunostaining intensity |
| --- | --- |
| MDLKNGSLVTEFILLGFFGRWELQIFFFVTFSLIYGATVMGNILIMVTVTCRSTLHSPLYFLLGNLSFLDMCLSTATTPKMIIDLLTDHKTISVWGCVTQMFFMHFFGGAEMTLLIIMAFDRYVAICKPLHYRTIMSHKLLKGFAILSWIIGFLHSISQIVLTMNLPFCGHNVINNIFCDLPLVIKLACIETYTLELFVIADSGLLSFTCFILLLVSYIVILVSVPKKSSHGLSKALSTLSAHIIVVTLFFGPCIFIYVWPFSSLASNKTLAVFYTVITPLLNPSIYTLRNKKMQEAIRKLRFQYVSSAQNF [OR4L1] | 549 ± 220 |
| MDNITWMASHTGWSDFILMGLFRQSKHPMANITWMANHTGWSDFILLGLFRQSKHPALLCVVIFVVFLMALSGNAVLILLIHCDAHLHTPMYFFISQLSLMDMAYISVTVPKMLLDQVMGVNKISAPECGMQMFFYVTLAGSEFFLLATMAYDRYVAICHPLRYPVLMNHRVCLFLSSGCWFLGSVDGFTFTPITMTFPFRGSREIHHFFCEVPAVLNLSCSDTSLYEIFMYLCCVLMLLIPVVIISSSYLLILLTIHGMNSAEGRKKAFATCSSHLTVVILFYGAAIYTYMLPSSYHTPEKDMMVSVFYTILTPVVNPLIYSLRNKDVMGALKKMLTVEPAFQKAME [OR2T4] | 122 ± 21 |
| MDNLTKVTEFLLMEFSGIWELQVLHAGLFLLIYLAVLVGNLLIIAVITLDQHLHTPMYFFLKNLSVLDLCYISVTVPKSIRNSLTRRSSISYLGCVAQVYFFSAFASAELAFLTVMSYDRYVAICHPLQYRAVMTSGGCYQMAVTTWLSCFSYAAVHTGNMFREHVCRSSVIHQFFRDIPHVLALVSCEVFFVEFLTLALSSCLVLGCFILMMISYFQIFSTVLRIPSGQSRAKAFSTCSPQLIVIMLFLTTGLFAALGPIAKALSIQDLVIALTYTVLPPFLNPIIYSLRNKEIKTAMWRLFVKIYFLQK [OR14I1] | 118 ± 14 |

Same assay, conditions: GPCR class: B

| Sequence | plasma membrane surface immunostaining intensity |
| --- | --- |
| MDLKTVLSLPRYPGEFLHPVVYACTAVMLLCLLASFVTYIVHQSAIRISRKGRHTLLNFCFHAALTFTVFAGGINRTKYPILCQAVGIVLHYSTLSTMLWIGVTARNIYKQVTKKAPLCLDTDQPPYPRQPLLRFYLVSGGVPFIICGVTAATNIRNYGTEDEDTAYCWMAWEPSLGAFYGPAAIITLVTCVYFLGTYVQLRRHPGRRYELRTQPEEQRRLATPEGGRGIRPGTPPAHDAPGASVLQNEHSFQAQLRAAAFTLFLFTATWAFGALAVSQGHFLDMVFSCLYGAFCVTLGLFVLIHHCAKREDVWQCWWACCPPRKDAHPALDANGAALGRAACLHSPGLGQPRGFAHPPGPCKMTNLQAAQGHASCLSPATPCCAKMHCEPLTADEAHVHLQEEGAFGHDPHLHGCLQGRTKPPYFSRHPAEEPEYAYHIPSSLDGSPRSSRTDSPPSSLDGPAGTHTLACCTQGDPFPMVTQPEGSDGSPALYSCPTQPGREAALGPGHLEMLRRTQSLPFGGPSQNGLPKGKLLEGLPFGTDGTGNIRTGPWKNETTV [ADGRA1] | 2640 ± 630 |
| MDRRMWGAHVFCVLSPLPTVLGHMHPECDFITQLREDESACLQAAEEMPNTTLGCPATWDGLLCWPTAGSGEWVTLPCPDFFSHFSSESGAVKRDCTITGWSEPFPPYPVACPVPLELLAEEESYFSTVKIIYTVGHSISIVALFVAITILVALRRLHCPRNYVHTQLFTTFILKAGAVFLKDAALFHSDDTDHCSFSTVLCKVSVAASHFATMTNFSWLLAEAVYLNCLLASTSPSSRRAFWWLVLAGWGLPVLFTGTWVSCKLAFEDIACWDLDDTSPYWWIIKGPIVLSVGVNFGLFLNIIRILVRKLEPAQGSLHTQSQYWRLSKSTLFLIPLFGIHYIIFNFLPDNAGLGIRLPLELGLGSFQGFIVAILYCFLNQEVRTEISRKWHGHDPELLPAWRTRAKWTTPSRSAAKVLTSMC [GHRHR] | 108 ± 5.4 |
